This assay has as its target T1, human 5T4 oncofoetal glycoprotein (human, UniProt Q13641 32-420).
T1 construct: whole, on cells; also called h5T4; trophoblast glycoprotein
T1 sequence (looked up): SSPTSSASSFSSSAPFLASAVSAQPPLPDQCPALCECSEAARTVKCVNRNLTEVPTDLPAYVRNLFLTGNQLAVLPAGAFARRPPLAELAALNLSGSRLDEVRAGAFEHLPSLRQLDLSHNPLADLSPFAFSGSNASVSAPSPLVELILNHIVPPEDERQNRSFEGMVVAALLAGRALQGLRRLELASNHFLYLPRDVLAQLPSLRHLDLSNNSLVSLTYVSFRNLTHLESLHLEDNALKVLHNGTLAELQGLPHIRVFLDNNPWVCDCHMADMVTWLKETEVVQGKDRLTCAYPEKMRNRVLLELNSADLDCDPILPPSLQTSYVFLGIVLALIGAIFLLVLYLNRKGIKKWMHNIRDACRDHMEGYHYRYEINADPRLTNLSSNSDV
Kind of assay: summary of the pull down and Western blot experiments. The method, then:
Denistometric scans of western blots between approximately 60-140 kDa (5T4 probe) and 30-140 kDa (CXCR4 probe). […] Under reducing conditions, the epitope recognized by 5T4 antibodies is destroyed but CXCR4 at 46 kD is detectable on the reduced gels of the 5T4 pulldown, (not shown). Thus, specific pull downs but not the controls, probed with either anti-CXCR4 or anti-5T4 detected molecules migrating ≈130 kDa in all the tumor lines.
Western blots were carried out using a BioRad Mini-PROTEAN Tetra (Thermo Fisher) supplemented with protease and phosphatase inhibitor cocktails (Thermo Fisher). RIPA buffer (50 mM Tris-Cl pH 7.4, 150 mM NaCl, 1% NP40, 0.25% Na-deoxycholate, 1 mM PMSF and protease and phosphatase inhibitor cocktail) was used as an alternative method of cell lysis. The compound PD98059 (Thermo Fisher) was applied to cells to inhibit MEK1 at 100 μM for 1 h prior to CXCL12 stimulation. Other primary antibodies used were ERK1/2, phospho-ERK1/2 (Thr202/Tyr204/Thr185/Tyr187), AKT and phospho-AKT (Thr308) (Cell Signalling Technology) at 1:1000. Following secondary antibody labelling using appropriate HRP conjugates (AbSerotec) hybridizing bands were detected using SuperSignal West Dura (Thermo Fischer). […]
For orientation: Immunoblotting shows a protein as a band on a membrane.

B1: human CXCR4 (receptor, UniProt P61073 1-352, looked up)
chain: MEGISIYTSDNYTEEMGSGDYDSMKEPCFREENANFNKIFLPTIYSIIFLTGIVGNGLVILVMGYQKKLRSMTDKYRLHLSVADLLFVITLPFWAVDAVANWYFGNFLCKAVHVIYTVNLYSSVLILAFISLDRYLAIVHATNSQRPRKLLAEKVVYVGVWIPALLLTIPDFIFANVSEADDRYICDRFYPNDLWVVVFQFQHIMVGLILPGIVILSCYCIIISKLSHSKGHQKRKALKTTVILILAFFACWLPYYIGISIDSFILLEIIKQGCEFENTVHKWISITEALAFFHCCLNPILYAFLGAKFKTSAQHALTSVSRGSSLKILSKGKRGGHSSVSTESESSSFHSS
notes: whole, on cells; Endogenous CXCR4 of human tumour cell lines, tested as unreduced solubilised membrane fractions (Western blot, pull down); also called chemokine (C-X-C motif) receptor 4
Consider B1, for which the binding result was “binds”.

The values above are taken from patent publication US20120282183A1 (CANCER RESEARCH TECHNOLOGY, published 2012).
